Measured values reported in IntAct's records for PubMed 19001025.

B1: Nucleolar protein 3 (Rattus norvegicus (Rat)), Q62881 (parent)
chain: MGNMQERPSETIDRERKRLVETLQADSGLLLDALVARGVLTGPEYEALDALPDAERRVRRLLLLVQSKGEAACQELLRCAQQTVSMPDPAWDWQHVGPGYRDRSYDPPCPGHWTPEAPSSGTTCPGLPRASEEEEIGGPEDSEAVQPRTPEEPELEAEATKGDEPDLEQEMEPEPEPEVEPEPEPEPEPEPEPEPEPEPEPEPEREPDFQEGDESEGCENT
partner: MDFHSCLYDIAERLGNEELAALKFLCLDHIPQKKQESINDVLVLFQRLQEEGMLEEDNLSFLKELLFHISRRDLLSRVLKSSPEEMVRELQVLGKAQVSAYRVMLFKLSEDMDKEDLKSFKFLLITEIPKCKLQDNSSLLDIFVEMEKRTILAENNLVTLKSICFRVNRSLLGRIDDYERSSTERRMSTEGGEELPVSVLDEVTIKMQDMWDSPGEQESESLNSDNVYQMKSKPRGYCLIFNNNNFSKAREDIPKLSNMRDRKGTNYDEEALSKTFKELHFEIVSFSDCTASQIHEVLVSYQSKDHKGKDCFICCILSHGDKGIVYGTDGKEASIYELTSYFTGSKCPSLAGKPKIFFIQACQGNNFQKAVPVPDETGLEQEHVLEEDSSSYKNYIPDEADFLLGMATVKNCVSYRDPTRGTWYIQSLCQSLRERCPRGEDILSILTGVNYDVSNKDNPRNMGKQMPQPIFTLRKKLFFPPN

Variants of: B1
Conditions: with casp8_rat Casp8, Q9JHX4

Row | effect of a mutation on the interaction | Variant
1 | disrupting interaction | T149D
